Experimental findings from article PMC6692446, “Characterization of H/D exchange in type 1 pili by proton-detected solid-state NMR and molecular dynamics simulations” (Journal of Biomolecular Nmr, 2019) are described below.

The data set deals with the molecule itself. The experiment in a line: H/D exchange followed by proton-detected solid-state NMR; pre-assembled reprotonated pili washed four times with 100% D2O buffer (10 mM sodium phosphate pH 7.0, 0.02% sodium azide), each with 4 h at room temperature; peak volumes of 3D (H)CANH spectra of redeuterated and reprotonated pili compared; 40 kHz MAS, 16.4 T, 17 °C; protection assigned to intra- or intermolecular contacts on the cryo-EM structure PDB 5OH0.

B1: FimA, type 1 pilus rod subunit (recombinant, assembled in vitro into type 1 pili) (natural protein, Escherichia coli, UniProt P04128 24-182, looked up)
chain: AATTVNGGTVHFKGEVVNAACAVDAGSVDQTVQLGQVRTASLAQEGATSSAVGFNIQLNDCDTNVASKAAVAFLGTAIDAGHTNVLALQSSAAGSATNVGVQILDRTGAALTLDGATFSSETTLNNGTNTIPFQARYFATGAATPGAANADATFKVQYQ
notes: FimA, major subunit of the type 1 pilus rod of Escherichia coli; Uniformly [2H,13C,15N]-labelled, proton back-exchanged at labile sites; Intramolecular disulfide Cys21-Cys61; In the pilus each subunit's N-terminal donor strand complements the neighbouring subunit; also called polymerized FimA; reprotonated pili
On to B1, for which the binding result is listed as “binds”.
